In article PMC11806408 (2025):

Biological target: fibrillin‐1 fragment start‐EGF4 (UniProt P35555 45-287)
Assay: SPR

Chain of fibrillin‐1 fragment start‐EGF4 (P35555 45-287): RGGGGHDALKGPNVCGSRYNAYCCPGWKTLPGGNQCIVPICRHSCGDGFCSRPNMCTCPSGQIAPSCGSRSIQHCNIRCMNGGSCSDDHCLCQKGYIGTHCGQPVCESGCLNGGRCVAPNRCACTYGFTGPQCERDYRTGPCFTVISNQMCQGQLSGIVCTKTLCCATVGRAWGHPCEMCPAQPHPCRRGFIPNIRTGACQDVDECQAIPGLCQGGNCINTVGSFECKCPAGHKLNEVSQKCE

B1: processed BMP‐10 CPLX (tag‐free, HEK293) (complex)
chain 1: SPIMNLEQSPLEEDMSLFGDVFSEQDGVDFNTLLQSMKDEFLKTLNLSDIPTQDSAKVDPPEYMLELYNKFATDRTSMPSANIIRSFKNEDLFSQPVSFNGLRKYPLLFNVSIPHHEEVIMAELRLYTLVQRDRMIYDGVDRKITIFEVLESKGDNEGERNMLVLVSGEIYGTNSEWETFDVTDAIRRWQKSGSSTHQLEVHIESKHDEAEDASSGRLEIDTSAQNKHNPLLIVFSDDQSSDKERKEELNEMISHEQLPELDNLGLDSFSSGPGEEALLQMRSNIIYDSTARIRR
chain 2: NAKGNYCKRTPLYIDFKEIGWDSWIIAPPGYEAYECRGVCNYPLAEHLTPTKHAIIQALVHLKNSQKASKACCVPTKLEPISILYLDKGVVTYKFKYEGMAVSECGCR
modifications: N‐glycosylation
Kd: 14.4 nM
